# According to publication doi:10.1101/2020.10.20.346916 (bioRxiv, 2020):
# B1: human monoclonal antibody 1.6C7 (antibody, V domains shown)
# VH: QVQLQQSGPGLVKPSQTLSLTCAISGDSVSSDSAAWNWIRQSPSRGLEWLGRTYFRSKWNNHYAVSVKSRITINPDTSKNQFSLLLNPVTPEDTAVYYCARATLARGALDYWGQGTLVTVSS
# VL: not shown
# B2: human monoclonal antibody 28D9 (antibody, V domains shown)
# VH: QVQLQQSGPGLVKPSQTLSLTCAISGDNVFSNSAAWNWIRQSPSRGLEWLGRTYYRSKWNNDYAVSVKGRITINPDTYKNQFSLQLNPVTPEDTAVYFCARVPMNRGGMDVWGQGTTVTVSS
# VL: not shown
# Experiments:
# [1] = biological target: HCoV-HKU1 spike ectodomain (HCoV-HKU1, strain Caen1, UniProt E0YJ44, strain); assay: ELISA
# MHV spike S2 ectodomain = MHV spike S2 ectodomain (MHV, strain A59, UniProt P11224); assay: ELISA
# [2] = biological target: HCoV-OC43 spike ectodomain (HCoV-OC43, strain Paris, UniProt Q696P8); assay: BLI
# [3] = biological target: GFP-tagged membrane-anchored full-length MHV spike protein (MHV, strain A59 (assumed as for the …, UniProt P11224)); assay: immunostaining of cells or tissue
# [4] = biological target: SARS-CoV-2 spike ectodomain (SARS-CoV-2, Wuhan-Hu-1, UniProt P0DTC2); assay: BLI
Binder,binding result [1],binding result (MHV spike S2 ectodomain),Kd [2],binding result [3],Kd [4]
B1,no binding (tested: 10 μg/ml),binds,5.28 nM,binds,–
B2,no binding (tested: 10 μg/ml),binds,7.45 nM,binds,5.96 nM
